Test results published in PMC12455930, “LEF-6 phosphorylation regulates the binding and trafficking of baculovirus late gene transcripts”.

T1: LEF-6 (non-phosphorylated, E. coli) (Autographa californica multiple …, UniProt S5G646 1-173)
T1 sequence: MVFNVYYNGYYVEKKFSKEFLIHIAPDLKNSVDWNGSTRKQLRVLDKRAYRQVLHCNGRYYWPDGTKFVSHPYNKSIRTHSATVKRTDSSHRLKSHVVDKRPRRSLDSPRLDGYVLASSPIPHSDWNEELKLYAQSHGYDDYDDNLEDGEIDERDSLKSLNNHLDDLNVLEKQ

T2: LEF6 1-90 (host not stated) (Autographa californica multiple …, UniProt S5G646 1-90)
T2 sequence: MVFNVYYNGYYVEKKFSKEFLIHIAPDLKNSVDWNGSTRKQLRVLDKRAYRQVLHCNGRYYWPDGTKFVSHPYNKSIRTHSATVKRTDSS

T3: LEF6 82-173 (Autographa californica multiple …, UniProt S5G646 82-173)
T3 sequence: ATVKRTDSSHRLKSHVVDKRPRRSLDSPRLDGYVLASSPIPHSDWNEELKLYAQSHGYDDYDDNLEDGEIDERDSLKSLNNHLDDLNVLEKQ

T4: LEF6 1-90 (E. coli) (Autographa californica multiple …, UniProt S5G646 1-90)
T4 sequence: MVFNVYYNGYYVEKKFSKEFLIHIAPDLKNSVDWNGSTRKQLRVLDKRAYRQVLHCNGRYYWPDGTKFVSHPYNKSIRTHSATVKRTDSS

T5: LEF6 1-90 (High Five) (Autographa californica multiple …, UniProt S5G646 1-90)
T5 sequence: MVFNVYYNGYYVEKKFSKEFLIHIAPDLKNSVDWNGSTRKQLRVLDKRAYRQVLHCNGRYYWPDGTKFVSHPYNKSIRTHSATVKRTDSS


Legend:
[1] = target: T1, LEF-6 (non-phosphorylated, E. coli); assay: fluorescence anisotropy; Anisotropy: 20 mM Tris-HCl pH 7.5, 20 mM NaCl, 5 nM FAM-ssRNA, 28 C; EMSA: 10 mM Tris pH 7.5, 20 mM KCl, 1 mM MgCl2, 1 mM DTT, 20 uM RNA, 22 C, 1% agarose/TAE.; settings: protein: recombinant, tags: His
[2] = target: T2, LEF6 1-90 (host not stated); assay: as above; settings: protein: recombinant, tags: His
[3] = target: T3, LEF6 82-173; assay: EMSA; Anisotropy: 20 mM Tris-HCl pH 7.5, 20 mM NaCl, 5 nM FAM-ssRNA, 28 C; EMSA: 10 mM Tris pH 7.5, 20 mM KCl, 1 mM MgCl2, 1 mM DTT, 20 uM RNA, 22 C, 1% agarose/TAE.; settings: protein: recombinant; tags: His; label: FAM (anisotropy); EMSA detected by ethidium bromide
[4] = target: T4, LEF6 1-90 (E. coli); assay: as above; settings: protein: recombinant; tags: His; label: FAM (anisotropy); EMSA detected by ethidium bromide
[5] = target: T5, LEF6 1-90 (High Five); assay: as above; settings: protein: recombinant; tags: His; label: FAM (anisotropy); EMSA detected by ethidium bromide
[6] = label: FAM (anisotropy), EMSA detected by ethidium bromide

Binder | binding result ([1]; label: FAM) | binding result ([2]; label: FAM) | binding result [1, 6] | binding result [2, 6] | binding result [3] | binding result [4] | binding result [5]
UUAUAACCAUCCCACCCCGGAUGGAGC (ssRNA) [ie1 ssRNA] | binds | binds |  |  |  |  | 
CGGUUUGCCCGCUCAAUUGACCGAUCU (ssRNA) [p10 ssRNA] |  |  | binds | binds |  |  | 
UUUUUUUUUUCUCUGCUCGACG (ssRNA) [unrelated ssRNA] | binds | binds |  |  |  |  | 
GACAGGUCGCCGAAGUUACAGAACACG (ssRNA) [p6.9 ssRNA] |  |  | binds | binds | no binding | binds | binds
